Results on five molecules are retold here after patent publication US20250090699A1, “FAP TARGETING CYCLIC PEPTIDES AND CONJUGATES THEREOF” (Novartis AG, priority 2023, published 2025).

Experiment [1] has as its target T1, mouse FAP (Mus musculus, UniProt P97321).
T1 construct: biotinylated His, Avi tag, mouse FAP (26-761, FAP-M82Q5); His; Avi tag (biotinylated); purchased AcroBiosystems FAP-M82Q5
T1 sequence (P97321 26-761): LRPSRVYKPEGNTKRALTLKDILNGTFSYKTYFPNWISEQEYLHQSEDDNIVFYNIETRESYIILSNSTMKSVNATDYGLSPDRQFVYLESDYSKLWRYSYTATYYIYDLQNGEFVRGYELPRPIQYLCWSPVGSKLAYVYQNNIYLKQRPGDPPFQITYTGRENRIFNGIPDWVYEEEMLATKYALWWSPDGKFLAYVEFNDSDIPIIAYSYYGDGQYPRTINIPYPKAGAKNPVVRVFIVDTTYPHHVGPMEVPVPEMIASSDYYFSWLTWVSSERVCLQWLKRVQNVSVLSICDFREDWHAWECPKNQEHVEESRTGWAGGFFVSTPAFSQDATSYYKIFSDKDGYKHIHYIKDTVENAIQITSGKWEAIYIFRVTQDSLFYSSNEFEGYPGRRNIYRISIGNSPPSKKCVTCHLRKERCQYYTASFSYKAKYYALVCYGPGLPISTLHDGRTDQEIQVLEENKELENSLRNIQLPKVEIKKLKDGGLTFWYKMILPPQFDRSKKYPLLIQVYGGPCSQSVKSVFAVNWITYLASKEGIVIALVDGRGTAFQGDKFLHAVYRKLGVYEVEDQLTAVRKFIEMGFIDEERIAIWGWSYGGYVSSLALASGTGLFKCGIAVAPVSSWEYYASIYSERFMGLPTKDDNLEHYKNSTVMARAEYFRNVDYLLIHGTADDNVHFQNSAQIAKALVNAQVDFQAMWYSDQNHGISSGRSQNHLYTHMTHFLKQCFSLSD
Nature of the experiment: Surface plasmon resonance (SPR) for peptide affinity, mouse FAP. Format: binding. On the procedure: Peptide affinities (KD) were determined by SPR using a Biacore™ 8K device (Cytiva) towards the following proteins: biotinylated His, Avi tag, human FAP (26-760, FAP-H82Q6), biotinylated His, Avi tag, mouse FAP (26-761, FAP-M82Q5), His tag, human DPP4 (34-766, DP4-H82E3), all purchased from AcroBiosystems and His tag, mouse DPP4 (29-760, 954-SE) from R&D Systems. The FAP proteins and their homologous were diluted to a concentration of 2 μg/mL into acetate buffer pH 5.5, then immobilized onto a CM5 sensorchip (Cytiva, BR-1005-30) to reach a response around 2000 R U. The running buffer HBS-EP+pH 7.6 (20× from Teknova CAT. No: H8022) contained 10 mM HEPES pH 7.6, 150 mM NaCl, 3 mM EDTA, 0.05% Tween20 and 2% DMSO. Experiments were carried out at 25° C. using a flow rate of 30 μL/min. Compounds were tested in single cycle kinetic mode at 8 different concentrations. Curve fitting was performed using the Biacore™ 8K evaluation software. The sensorgrams were fitted by applying a 1:1 binding model to calculate kinetic rate constants and equilibrium dissociation constants (KD).
For this assay, the setup had the same conditions (flow rate, running buffer, peptide dilution) as described above for the CM5 method. The oligo CAP reagent obtained in the CAPture Kit (Ref. 28920234) was 1/5 diluted into running buffer and used with a contact time of 300 s at a flow rate of 2 μL/min. The human and mouse FAP constructs described above were used (from AcroBiosystems or produced in house). The FAP proteins were diluted to a concentration of 2 μg/mL into acetate pH 5.5, 0.05% Tween20 and used with a contact time of 600 s at a flow rate of 10 μL/min. The peptides were tested with an association time of 280 s followed by a dissociation time of 3000 s at a flow rate of 30 μL/min. The regeneration was done using the regeneration solution (8 M guanidine-HCl, 1 M NaOH) as obtained with a contact time of 270 s at a flow rate of 10 μL/min. […] The compounds marked with an asterisk were tested against human and mouse DDP4.

A further experiment addresses T2, human FAP (Homo sapiens, UniProt Q12884).
T2 construct: the biotinylated His, Avi tag, human FAP (26-760, FAP-H82Q6); His; Avi tag (biotinylated); purchased AcroBiosystems FAP-H82Q6
T2 sequence (Q12884 26-760): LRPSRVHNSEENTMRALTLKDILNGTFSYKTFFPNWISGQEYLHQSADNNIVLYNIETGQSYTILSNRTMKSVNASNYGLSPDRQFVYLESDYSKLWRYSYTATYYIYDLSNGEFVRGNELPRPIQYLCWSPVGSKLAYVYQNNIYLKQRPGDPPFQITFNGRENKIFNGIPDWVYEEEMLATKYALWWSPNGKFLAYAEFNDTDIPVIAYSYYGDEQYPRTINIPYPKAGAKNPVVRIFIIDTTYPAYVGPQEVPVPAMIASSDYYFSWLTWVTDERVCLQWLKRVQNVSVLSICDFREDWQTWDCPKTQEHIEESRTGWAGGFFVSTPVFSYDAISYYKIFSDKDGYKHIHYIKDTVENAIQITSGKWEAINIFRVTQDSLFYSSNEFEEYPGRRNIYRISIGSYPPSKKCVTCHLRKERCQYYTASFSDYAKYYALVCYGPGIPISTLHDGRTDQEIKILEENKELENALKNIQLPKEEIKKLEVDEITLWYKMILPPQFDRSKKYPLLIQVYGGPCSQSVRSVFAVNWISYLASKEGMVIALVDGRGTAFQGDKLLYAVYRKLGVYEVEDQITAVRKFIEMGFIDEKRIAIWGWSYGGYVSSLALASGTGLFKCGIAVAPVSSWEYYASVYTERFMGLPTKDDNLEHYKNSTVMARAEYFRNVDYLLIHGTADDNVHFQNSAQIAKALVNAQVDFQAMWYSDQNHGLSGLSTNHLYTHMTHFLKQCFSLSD
Nature of the experiment: Enzymatic FAP competition assay (Z-Gly-Pro-AMC fluorescence), human FAP. As to conditions: read-out: h. FAP, Enz., IC50. Format: biochemical. The method, then:
(§1) Peptide potencies (IC50) to inhibit the FAP enzymatic activity were determined using a fluorescence-based assay towards the biotinylated His, Avi tag, human FAP (26-760, FAP-H82Q6) and the biotinylated His, Avi tag, mouse FAP (26-761, FAP-M82Q5). Standard assay conditions consisted of 20 μL total volume in white 384-well plates (Greiner, Ref. 784075), in 50 mM phosphate buffer pH 7.5 containing 150 mM NaCl, 0.05% Tween20 and 1% final DMSO. Tested peptides at 14 different concentrations up to 1 μM were added to 0.01 nM human or mouse FAP. The peptides were incubated for 24 hours together with the protein before adding the substrate 50 μM Z-Gly-Pro-AMC (I-1145 from Bachem). Samples were then incubated at 22-24° C. for 4 h before reading the fluorescence at excitation wavelength of 380 nm and emission wavelength of 460 nm using the Tecan Infinite® M1000 PRO. The high control (100% activity) was not containing any peptide, and an internal potent peptide was added at 10 μM concentration for the low control (100% inhibition). IC50 values were calculated by curve fitting using an in-house developed software (Novartis Helios software application) using the method described by Fomenko et al., 2006 (regression algorithms for nonlinear dose-response curve fitting). Following normalization of activity values for the wells to % inhibition (% inhibition=[(high control-sample)/(high control-low control)]x 100). IC50 fitting was carried out from the duplicated points.

Experiment [2] deals with T1, mouse FAP. As to the kind of experiment: Enzymatic FAP competition assay (Z-Gly-Pro-AMC fluorescence), mouse FAP. Format: biochemical. As to conditions: read-out: m. FAP, Enz., IC50. The method, then:
as §1

Starred links: 1 amine or outer side, 2 acyl side, 3 side chain; linkers in the order of their positions; H or OH if unused. Non-standard residues stand in square brackets, D forms with d. Residues, ends and D or L forms follow the SMILES beside them. Primed or numbered codes have the meaning given here. *: point of attachment. F(4amPEG2NHDOTA-Lu) = lutetium complex of (S)-2,2',2''-(10-(1-(4-(2-amino-2-carboxyethyl)phenyl)-3,12-dioxo-5,8-dioxa-2,11-diazatridecan-13-yl)-1,4,7,10-tetraazacyclododecane-1,4,7-triyl)triacetic acid (Phe with 4-aminomethyl-PEG2-DOTA-Lu), O=C([O-])CN1CCN(CC(=O)[O-])CCN(CC(=O)NCCOCCOCC(=O)NCc2ccc(C[C@H](N[*:1])C(=O)[*:2])cc2)CCN(CC(=O)[O-])CC1.[Lu+3]; F(4OEtNHDOTA-Lu) = lutetium complex of (S)-2,2',2''-(10-(2-((2-(4-(2-amino-2-carboxyethyl)phenoxy)ethyl)amino)-2-oxoethyl)-1,4,7,10-tetraazacyclododecane-1,4,7-triyl)triacetic acid (Phe with 4-O-ethylamino-DOTA-Lu), O=C([O-])CN1CCN(CC(=O)[O-])CCN(CC(=O)NCCOc2ccc(C[C@H](N[*:1])C(=O)[*:2])cc2)CCN(CC(=O)[O-])CC1.[Lu+3]; K(COpipzaa) = N6-(4-(carboxymethyl)piperazine-1-carbonyl)-L-lysine, O=C(NCCCC[C@H](N[*:1])C(=O)[*:2])N1CCN(CC(=O)[*:3])CC1; COpipzaa″ = 4-(carboxymethyl)piperazine-1-carbonyl on Lys N6, O=C(O)CN1CCN(C(=O)*)CC1; F(4OEtNHRDOTAGA-Lu) = Phe with 4-O-ethyl-NH-DOTAGA, Lu complex; hS(Pr) = O-propyl-L-homoserine, CCCOCC[C@H](N[*:1])C(=O)[*:2]; AEF = NCCOc1ccc(C[C@H](N)C(=O)O)cc1; Hyp = O=C(O)[C@@H]1C[C@@H](O)CN1; NMeF = CN[C@@H](Cc1ccccc1)C(=O)O; Ahp(2) = CCCCC[C@H](N)C(=O)O Bounds are passed on as bounds.

As usually defined, the Kd is the concentration at which binding is half-saturated. A higher Kd goes with lower affinity. In general, IC50 refers to the point on the concentration scale where inhibition reaches its midpoint. On mouse FAP [1], `CCCCC[C@@H]1NC(=O)[C@H](Cc2ccc(O)cc2)NC(=O)[C@H](Cc2ccccc2)N(C)C(=O)CNC(=O)CNC(=O)[C@H]2CCCN2C(=O)[C@H](CCC(=O)O)NC(=O)[C@H](Cc2ccc(O)cc2)NC(=O)CNC(=O)[C@H](Cc2c[nH]c3ccccc23)NC1=O` [Example A71, Gly-Gly-NMePhe-Tyr-Ahp-Trp-Gly-Tyr-Glu-D-Pro] (cyclo([Ahp(2)]WGYE[dP]GG[NMeF]Y)) had a Kd of 0.242 nM. The IC50 at human FAP stood at 0.69 nM; at mouse FAP [2], 0.61 nM.

In turn, `CCCCC[C@@H]1NC(=O)[C@H](Cc2ccc(OCCN)cc2)NC(=O)[C@H](Cc2ccccc2)N(C)C(=O)CNC(=O)[C@@H]2C[C@@H](O)CN2C(=O)[C@H]2CCCN2C(=O)[C@H](CC(=O)O)NC(=O)[C@H](Cc2ccc(O)cc2)NC(=O)CNC(=O)[C@H](Cc2c[nH]c3ccccc23)NC1=O` [Example A33, trans4Hyp-Gly-NMePhe-F(4OEtNH2)-Ahp-Trp-Gly-Tyr-Asp-D-Pro] (cyclo([AEF][Ahp(2)]WGYD[dP][Hyp]G[NMeF])) displayed a Kd at mouse FAP [1] of 1.1 nM. The IC50 at human FAP was found to be 1 nM; at mouse FAP [2], 3.2 nM.

As for “K(COpipzaa)-Gly-NMePhe-F(4OEtNHDOTA-Lu)-Ahp-Trp-Gly-Tyr-Asp-D-Pro (cyclo(K(COpipzaa″)G[NMeF][F(4OEtNHDOTA-Lu)][Ahp(2)]WGYD[dP]); also: Lu complex) [Example C25]”, binding with mouse FAP [1] was put at a Kd of 0.34 nM. Moreover, the results for the IC50 with human FAP and in the experiment with mouse FAP [2] were 0.098 nM and 0.35 nM, respectively.

“Gly-Gly-NMePhe-F(4OEtNHRDOTAGA-Lu)-Ahp-Trp-Gly-Tyr-Asp-D-Pro (cyclo(GG[NMeF][F(4OEtNHRDOTAGA-Lu)][Ahp(2)]WGYD[dP]); also: Lu complex of DOTAGA) [Example C31]”: the equilibrium dissociation constant (Kd) with mouse FAP [1] was under 0.01 nM. In addition, the IC50 with human FAP worked out at 0.007 nM; with mouse FAP [2], 0.027 nM.

In turn, “Glu-Gly-NMePhe-F(4amPEG2NHDOTA-Lu)-hS(Pr)-Trp-Gly-K(COpipzaa)-Asp-D-Pro (cyclo(EG[NMeF][F(4amPEG2NHDOTA-Lu)][hS(Pr)]WG[K(COpipzaa)]D[dP]); also: Lu complex of DOTA) [Example C5]” showed a Kd in the experiment with mouse FAP [1] of under 0.084 nM. The half-inhibitory concentration (IC50) with human FAP came out at 0.019 nM; in the experiment with mouse FAP [2] it was 0.049 nM.
